Legend:
[1] = target: CCT1, subunit of human TRiC (human, UniProt P17987 1-556); assay: cross-linking
[2] = target: T1, CCT2, subunit of human TRiC (human, UniProt P78371 1-535); assay: cross-linking
T1 sequence: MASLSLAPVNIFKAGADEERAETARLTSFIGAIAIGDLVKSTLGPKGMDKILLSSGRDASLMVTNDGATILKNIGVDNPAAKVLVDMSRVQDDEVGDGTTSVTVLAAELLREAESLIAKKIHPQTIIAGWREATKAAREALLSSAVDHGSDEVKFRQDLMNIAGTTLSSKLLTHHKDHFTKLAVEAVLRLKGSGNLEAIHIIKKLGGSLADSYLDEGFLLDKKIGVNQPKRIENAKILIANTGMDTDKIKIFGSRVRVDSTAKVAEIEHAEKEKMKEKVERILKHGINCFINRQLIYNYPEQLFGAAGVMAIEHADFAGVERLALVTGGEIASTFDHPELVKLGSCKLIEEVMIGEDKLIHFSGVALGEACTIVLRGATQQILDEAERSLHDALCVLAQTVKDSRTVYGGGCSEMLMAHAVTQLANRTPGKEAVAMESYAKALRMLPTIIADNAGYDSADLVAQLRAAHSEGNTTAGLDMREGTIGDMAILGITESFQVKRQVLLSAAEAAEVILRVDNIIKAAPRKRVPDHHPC

[3] = target: CCT5, subunit of human TRiC (human, UniProt P48643 1-541); assay: cryo-EM structure
CCT5, subunit of human TRiC, sequence (P48643 whole entry): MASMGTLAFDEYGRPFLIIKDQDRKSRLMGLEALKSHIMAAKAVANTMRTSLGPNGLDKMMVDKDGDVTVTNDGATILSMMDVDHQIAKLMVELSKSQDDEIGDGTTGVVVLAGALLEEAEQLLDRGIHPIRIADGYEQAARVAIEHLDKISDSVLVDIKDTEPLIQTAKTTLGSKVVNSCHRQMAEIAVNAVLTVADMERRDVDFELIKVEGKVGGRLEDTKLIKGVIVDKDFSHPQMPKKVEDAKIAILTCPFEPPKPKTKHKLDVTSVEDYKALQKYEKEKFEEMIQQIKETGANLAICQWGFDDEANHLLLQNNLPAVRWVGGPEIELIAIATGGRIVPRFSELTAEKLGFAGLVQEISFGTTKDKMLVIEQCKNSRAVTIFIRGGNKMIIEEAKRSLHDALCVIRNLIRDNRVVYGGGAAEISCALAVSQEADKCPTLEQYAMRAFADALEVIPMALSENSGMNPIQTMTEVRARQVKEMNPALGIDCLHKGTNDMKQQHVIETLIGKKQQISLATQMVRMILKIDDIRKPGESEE

[4] = target: human chaperonin TCP-1 ring complex (TRiC/CCT) (human) (UniProt P17987); assay: cryo-EM structure

CCT1, subunit of human TRiC, sequence (P17987 whole entry): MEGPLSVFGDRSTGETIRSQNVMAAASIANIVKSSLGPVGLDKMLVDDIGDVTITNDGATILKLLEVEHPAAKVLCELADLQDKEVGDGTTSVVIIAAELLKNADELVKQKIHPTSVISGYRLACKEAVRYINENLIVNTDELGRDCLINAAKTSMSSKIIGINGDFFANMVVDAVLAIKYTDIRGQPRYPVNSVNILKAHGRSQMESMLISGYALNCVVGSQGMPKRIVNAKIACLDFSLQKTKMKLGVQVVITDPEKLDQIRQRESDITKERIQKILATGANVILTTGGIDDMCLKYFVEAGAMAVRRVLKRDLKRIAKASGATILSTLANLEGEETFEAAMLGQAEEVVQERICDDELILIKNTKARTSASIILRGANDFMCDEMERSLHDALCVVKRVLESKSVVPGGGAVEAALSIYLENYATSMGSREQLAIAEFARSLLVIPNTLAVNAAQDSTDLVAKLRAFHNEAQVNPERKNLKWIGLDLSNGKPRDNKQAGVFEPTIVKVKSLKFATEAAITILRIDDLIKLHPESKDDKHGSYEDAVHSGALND

B1: phosducin-like protein PhLP2A, full length (natural protein)
chain: MQDPNADTEWNDILRKKGILPPKESLKELEEEAEEEQRILQQSVVKTYEDMTLEELEDHEDEFNEEDERAIEMYRRRRLAEWKATKLKNKFGEVLEISGKDYVQEVTKAGEGLWVILHLYKQGIPLCALINQHLSGLARKFPDVKFIKAISTTCIPNYPDRNLPTIFVYLEGDIKAQFIGPLVFGGMNLTRDELEWKLSESGAIMTDLEENPKKPIEDVLLSSVRRSVLMKRDSDSEGD
binding result [1]: binds | binding result [2]: binds | binding result [3]: binds | percent of particles (3D classification) [4]: 22.9% | percent of particles with PhLP2A in both chambers [4]: 9.5% | percent of particles with PhLP2A in one chamber [4]: 14%
